From US20250346644A1 (LATTICON SUZHOU BIOPHARMACEUTICALS, published 2025)
Where a chain is given by its changes, count along the chain named. Names and notes keep the numbering of the source.

B1: hS4B6-H6K7 (antibody, V domains shown)
VH: QVQLVQSGAEVKKPGATVKISCKVSGDTITAYYLHWVRQAPGQGLEWIGRIDPEDDSTKYAENFKNRVTITADTSTNTAYMELSSLRSEDTAVYYCTTVTFYYSRELRWFAYWGQGTLVTVSS
VL: DIQMTQSPSSLSASVGDRVTITCQASQDIGNYLSWYQQKPGKAPKLLIHSATSLADGVPSRFSGSGSGTDFTLTISSLQPEDFATYYCLQHYSTPYTFGGGTKVEIK
notes: full antibody
B2: IC-Cy08-DE (other)
heavy: APTSSSTKKTQLQLEHLLLDLQMILNGINNYKNPKLTRMLTFKFYMPKKATELKHLQCLEEELGCLEEVLNLAQSKNFHLRPRDLISNIRVIVLELKGSETTFMCEYADETATIVEFLNRWITFCQSIISTLTGGGGSGGGGSGGGGSGGGGSQVQLVQSGAEVKKPGATVKISCKVSGDTITAYYMHWVRQAPGQGLEWIGRIDPEDDSTKYAENFKGRVTITADTSTDTAYMELSSLRSEDTAVYYCTTVTCYYSRELRWFAYWGQGTLVTVSS
VL: EIVLTQSPATLSLSPGERATLSCQASQDIGNYLSWYQQKPGQAPRLLIYSATSLASGIPARFSGSRSGTDFTLTISSLEPEDFAVYYCLQHYSTPYTFGQGTKLEIK
notes: IC-Cy08 with light chain D1E; also called H6K3(H)-Cy-08-DE
B3: hS4B6-H1K1 (antibody, V domains shown)
VH: QVQLQESGPGLVKPSETLSLTCTVSGDTITAYYLHWIRQPPGKGLEWIGRIDPEDDSTKYAENFKNRVTISVDTSKNQFSLKLSSVTAADTAVYYCTTVTFYYSRELRWFAYWGQGTTVTVSS
VL: B2 VL with E1D, A9G, S56D, A60D, F71Y, S77R, L104V
notes: full antibody
B4: hS4B6-H3K3 (antibody, V domains shown)
VH: QVTLKESGPVLVKPTQTLTLTCTVSGDTITAYYLHWIRQPPGKALEWIGRIDPEDDSTKYAENFKNRLTFSADTSKNQVVLTMTNMDPVDTATYYCARVTFYYSRELRWFAYWGQGTLVTVSS
VL: B2 VL with E1D, S56D, F71Y
notes: full antibody
B5: K2G11-Cy04 (other)
heavy: SSSTKKTQLQLEHLLLDLQMILNGINNYKNPKLTRMLTFKFYMPKKATELKHLQCLEEELGPLEEVLNLAQSKNFHLRPRDLISNIRVIVLELKGSETTFCCEYADETATIVEFLNRWITFLQSIISTLTGGGGSGGGGSGGGGSGGGGSQVQLVQSGAEVKKPGATVKISCKVSGDTITAYYMHWVRQAPGQGLEWIGRIDPDDDSTKYAENFKGRVTITADTSTDTAYMELSSLRSEDTAVYYCTTITFLYSRELRWFAYWGQGTLVTVSS
VL: B2 VL with E1D, D28Y, G30S, T52C
B6: IC-Cy08-QG (other)
heavy: B2 heavy
VL: B2 VL with E1D, Q27G
notes: IC-Cy08 with light chain Q27G; also called H6K3(H)-Cy-08-QG
B7: IC-Cy08-QE (other)
heavy: B2 heavy
VL: B2 VL with E1D, Q27E
notes: IC-Cy08 with light chain Q27E; also called H6K3(H)-Cy-08-QE
B8: hS4B6-H6K3-hu06 (antibody, V domains shown)
VH: B1 VH with N66S
VL: B2 VL with E1D, S56D, F71Y
notes: H6K3 with heavy chain N65S
B9: IC-Cy08-QS (other)
heavy: B2 heavy
VL: B2 VL with E1D, Q27S
notes: IC-Cy08 with light chain Q27S; also called H6K3(H)-Cy-08-QS
B10: hS4B6-H6K3-hu10 (antibody, V domains shown)
VH: B1 VH
VL: B2 VL with E1D, S56T, F71Y
notes: H6K3 with light chain D56T
B11: hS4B6-H6K3-hu09 (antibody, V domains shown)
VH: B1 VH
VL: B2 VL with E1D, F71Y
notes: H6K3 with light chain D56S
B12: hS4B6-H6K3-hu07 (antibody, V domains shown)
VH: B1 VH with N66G
VL: B2 VL with E1D, S56D, F71Y
notes: H6K3 with heavy chain N65G
B13: hS4B6-H6K3-hu11 (antibody, V domains shown)
VH: B1 VH
VL: B2 VL with E1D, S56D, R66G, F71Y
notes: H6K3 with light chain R66G
B14: IC-Cy08-QK (other)
heavy: B2 heavy
VL: B2 VL with E1D, Q27K
notes: IC-Cy08 with light chain Q27K; also called H6K3(H)-Cy-08-QK; C-Cy8-QK
B15: IC-Cy08-QD (other)
heavy: B2 heavy
VL: B2 VL with E1D, Q27D
notes: IC-Cy08 with light chain Q27D; also called H6K3(H)-Cy-08-QD
B16: hS4B6-H6K3-hu08 (antibody, V domains shown)
VH: B1 VH with N77D
VL: B2 VL with E1D, S56D, F71Y
notes: H6K3 with heavy chain N76D; also called H6K3-huis
B17: hS4B6-H6K3-hu12 (antibody, V domains shown)
VH: B1 VH
VL: B2 VL with E1D, S56D
notes: H6K3 with light chain Y71F
B18: IC-Cy08-QR (other)
heavy: B2 heavy
VL: B2 VL with E1D, Q27R
notes: IC-Cy08 with light chain Q27R; also called H6K3(H)-Cy-08-QR

Key:
[1] = biological target: T1, mIL2-his (mouse, UniProt P04351 21-169); experiment: BLI ForteBio, Ab on Protein A sensor
T1 construct: also called wild-type mouse IL-2 (with a his-tag); not shown: his-tag
T1 sequence (looked up): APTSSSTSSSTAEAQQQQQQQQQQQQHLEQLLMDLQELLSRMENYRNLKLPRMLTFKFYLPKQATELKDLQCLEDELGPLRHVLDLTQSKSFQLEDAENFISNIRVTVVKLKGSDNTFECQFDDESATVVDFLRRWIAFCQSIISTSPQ

[2] = biological target: T1, mIL2-his; experiment: ELISA, antibody captured by anti-human IgG, mIL2-his titrated
Procedure: (§1) ELISA was performed as follows: a goat anti-human IgG (Jackson Immunoresearch) was diluted to 1 μg/mL in 1×PBS and added to an ELISA plate at 100 μL/well, and then incubated at 4° C. overnight. The plate was washed with PBS and then blocked at room temperature for 1 hour after adding the blocking solution (PBST containing 1% BSA) to each well. […] The plate was washed with PBST; the HRP-labeled anti-6×His-tag secondary antibody (Proteintech) diluted at a ratio of 1:10,000 in blocking solution was then added to each well and incubated at room temperature for 1 hour. The plate was washed with PBST; the TMB chromogenic solution (Thermo) was added to each well and incubated in dark for 3-10 minutes at room temperature. The stop solution (2 M HCl) was added to each well, and OD values at a wavelength of 450-570 nm were read using a multimode microplate reader (Varioskan, Thermo).

[3] = biological target: T2, hIL2Rβ (hCD122) (human, UniProt P14784 27-239, limits assumed); experiment: ELISA (method of section 2.1.1): sample captured on coated goat anti-human IgG, hCD122 titrated; the x axis is the CD122 concentration
T2 construct: bought recombinant protein; also called hCD122 (Acro)
T2 sequence (looked up): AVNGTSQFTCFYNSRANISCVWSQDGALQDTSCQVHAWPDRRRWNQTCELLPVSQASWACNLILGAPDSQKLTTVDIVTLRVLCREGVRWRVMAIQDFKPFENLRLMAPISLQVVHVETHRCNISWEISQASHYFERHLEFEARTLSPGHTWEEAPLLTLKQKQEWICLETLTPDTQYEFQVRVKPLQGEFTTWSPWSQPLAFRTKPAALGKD
Procedure: as §1

[4] = biological target: T3, high-affinity IL2R expressed on the surface of CTLL-2 cells; experiment: cell-based or functional assay
T3 sequence (P01590 whole entry, species assumed, looked up): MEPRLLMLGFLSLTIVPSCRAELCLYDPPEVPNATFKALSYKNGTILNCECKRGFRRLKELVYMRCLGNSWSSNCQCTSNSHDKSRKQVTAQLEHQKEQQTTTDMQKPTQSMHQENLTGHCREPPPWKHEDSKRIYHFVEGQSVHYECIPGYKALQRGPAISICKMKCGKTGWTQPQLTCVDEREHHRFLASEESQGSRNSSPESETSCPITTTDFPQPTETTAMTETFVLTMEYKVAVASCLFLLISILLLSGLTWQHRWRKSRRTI
T3 sequence (P16297 whole entry, species assumed, looked up): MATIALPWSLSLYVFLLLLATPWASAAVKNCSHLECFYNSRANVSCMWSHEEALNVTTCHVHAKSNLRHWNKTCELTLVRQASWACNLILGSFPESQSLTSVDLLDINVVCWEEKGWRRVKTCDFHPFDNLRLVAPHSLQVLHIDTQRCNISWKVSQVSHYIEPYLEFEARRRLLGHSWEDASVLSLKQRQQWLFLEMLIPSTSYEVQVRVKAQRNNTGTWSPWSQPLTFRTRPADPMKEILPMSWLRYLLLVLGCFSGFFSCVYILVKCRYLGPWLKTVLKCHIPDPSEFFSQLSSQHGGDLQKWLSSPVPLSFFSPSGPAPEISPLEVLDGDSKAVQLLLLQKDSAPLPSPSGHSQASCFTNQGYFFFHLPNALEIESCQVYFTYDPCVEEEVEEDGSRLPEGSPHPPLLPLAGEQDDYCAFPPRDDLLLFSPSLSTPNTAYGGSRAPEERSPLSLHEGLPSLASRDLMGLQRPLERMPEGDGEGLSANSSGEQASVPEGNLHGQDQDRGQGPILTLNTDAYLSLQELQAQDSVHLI
T3 sequence (P34902 whole entry, species assumed, looked up): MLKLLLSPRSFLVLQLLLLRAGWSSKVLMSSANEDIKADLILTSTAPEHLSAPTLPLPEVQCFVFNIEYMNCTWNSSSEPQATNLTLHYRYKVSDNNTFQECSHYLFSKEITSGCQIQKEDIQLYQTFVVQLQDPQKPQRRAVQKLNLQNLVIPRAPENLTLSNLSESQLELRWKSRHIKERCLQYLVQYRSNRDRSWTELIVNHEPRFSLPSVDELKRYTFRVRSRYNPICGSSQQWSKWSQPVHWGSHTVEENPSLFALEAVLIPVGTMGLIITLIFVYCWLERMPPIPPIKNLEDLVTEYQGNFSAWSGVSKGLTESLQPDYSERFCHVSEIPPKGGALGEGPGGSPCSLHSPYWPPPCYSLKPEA

[5] = biological target: T4, hIL2-DM-his (human, UniProt P60568 21-153); experiment: BLI ForteBio, Ab on Protein A sensor
T4 construct: expressed in ExpiCHO-S cells, nickel-column purified; also called hIL-2 mutein containing two point mutations K64G and N90R (with a his-tag); not shown: his-tag

Row | Binder | binding result [3] | Binding Response (nm) [5] [nm] | Kd [5] [nM] | koff [5] [s⁻¹] | kon [5] [M⁻¹ s⁻¹] | other results
1 | B1 |  |  |  |  |  | Kd [1]: 1.4 nM; koff [1]: 0.00121 s⁻¹; kon [1]: 864000 M⁻¹ s⁻¹; EC50 [2]: 0.0357 µg/mL
2 | B2 | binds |  |  |  |  | 
3 | B3 |  |  |  |  |  | Kd [1]: 25.9 nM; koff [1]: 0.000719 s⁻¹; kon [1]: 27700 M⁻¹ s⁻¹; EC50 [2]: 0.0357 µg/mL
4 | B4 |  |  |  |  |  | Kd [1]: 13.2 nM; koff [1]: 0.00265 s⁻¹; kon [1]: 200000 M⁻¹ s⁻¹; EC50 [2]: 0.185 µg/mL
5 | B5 |  |  |  |  |  | Activity in Promoting CTLL-2 Cell Proliferation (EC50, nM) [4]: 9.17 nM
6 | B6 | binds |  |  |  |  | 
7 | B7 | binds |  |  |  |  | 
8 | B8 |  | 0.135 | 52.5 | 0.0192 | 365000 | 
9 | B9 | binds |  |  |  |  | 
10 | B10 |  | 0.172 | 28.3 | 0.0106 | 372000 | 
11 | B11 |  | 0.18 | 23.6 | 0.00867 | 367000 | 
12 | B12 |  | 0.13 | 45.3 | 0.0181 | 400000 | 
13 | B13 |  |  |  |  |  | binding result [5]: no binding (tested: 100 nM (highest antigen concentration))
14 | B14 | binds |  |  |  |  | 
15 | B15 | binds |  |  |  |  | 
16 | B16 |  | 0.127 | 58.1 | 0.0207 | 356000 | 
17 | B17 |  | 0.152 | 32.3 | 0.0174 | 537000 | 
18 | B18 | binds |  |  |  |  | 
